In paper PMC12700558, “Aggregation shifts amyloid-β peptides from synaptogenic to synaptotoxic” (The Journal of Clinical Investigation, 2025):

Test system: human neurons
Experiment: NLS-TdTomato cytotoxicity assay (cytoplasmic leakage of NLS-TdTomato)
Experimental: The MTT assay employs yellow tetrazolium dye that is reduced to a purple formazan crystal by viable cells with active metabolism ([21]). Because it measures metabolic activity in all cells, this assay serves as a broad cytotoxicity read out for the entire glia/neuron coculture system. The amount of formazan produced is then measured because it is directly proportional to the number of viable cells ([21]) (Figure 1B and Supplemental Figure 1A). The nuclear localization TdTomato assay, conversely, enables monitoring of cellular stress by tracking the localization of fluorescent TdTomato fused to a nuclear localization signal. Under healthy conditions, the nuclear localization signal directs the NLS-TdTomato to the nucleus. When toxicity in a cell causes a reduction in ATP levels, NLS-TdTomato leaks out of the nucleus into the cytoplasm, which we scored as an index of toxicity (Figure 1, C and D, and Supplemental Figure 1, B–D). Because the reporter is expressed only in neurons, this assay specifically assesses neurotoxicity within the coculture. We developed this assay because it can be performed on live cells and reflects decreases in ATP levels in these cells. […]
To assess neuronal cytotoxicity induced by Aβ peptides, we employed a novel Td-Tomato cytotoxicity assay that we developed. […] Neurons displaying cytoplasmic Td-Tomato were counted as indicators of cytotoxicity. […]

Substance: -.DAEFRHDSGYEVHHQKLVFFAGDVGSNKGAIIGLMVGGVVI.A [Aβ42^arctic]
- Concentration at which neurotoxicity became apparent, NLS-TdTomato assay: greater than or equal to 0.1 μM
